Patent publication WO2021105669A1 (dated 2021)
Positions count from the first letter of the chain named.

B1: 11892 (antibody, V domains shown)
VH: QSMEESGGRLVTPGTPLTLTCTVSGFSLSIYSMSWVRQAPGKGLEWIGIIYLGDRAYYASWAKGRFTISKTSSTTVDLKITSPTTEDTATYFCARVAGYAGYGYAFYDAFDPWGPGTLVTVSS
VL: DVVMTQTPASVSEPVGGTVTIKCQASQSIGSNLAWYQQKPGQPPKLLIYAASTLASGVPSRFKGSGSGTEFTLTINGVQCDDTATYYCQCTYYANTYVAETFGGGTEVVVK
B2: 11881 (antibody, V domains shown)
VH: B1 VH
VL: B1 VL with N95S
B3: 11886 (antibody, V domains shown)
VH: QSVEESGGRLVTPGTPLTLTCIVSGFSLSNYYMSWVRQVPGKGLEWIGVIGWSGTSSYASWAKGRFTISKTASTTVDLKITSPTTEDTATYFCARVLYIGGGFNYYDAFDPWGPGTLVTVSS
VL: DVVMTQTPASVSEPVGGTVTIKCQASQSIGSNLAWYQQKPGQPPKLLIYAASTLASGVPSRFKGSGSGTEFTLTISDLECADAATYYCQCTYYDSSYVYNNFGGGTEVVVK
B4: 11889 (antibody, V domains shown)
VH: QSLEESGGDLVKPGASLTLTCTASGFSFSSSYWICWVRQAPGKGLEWIACIYAGSSGSTYYASWAKGRFTISKTSSTTVTLQMTSLTAADTATYFCATAYAVSAPFGYTLFKYFELWGPGTLVTVSS
VL: AVVLTQTASPVSAPVGGTVTIKCQASQNIYSDLAWYQQKPGQPPKLLIYDTSNLASGVSSRFKGSRSGTEFTLTISDLECADAATYYCQAYYYSSSSGDTTFGGGTEVVVK

Biological target: TAFV GP (YP_003815426.1) (Tai Forest Ebola virus, UniProt Q66810 33-676)
Test: flow cytometry on transiently transfected HEK293 cells

Binder	binding result
B1	binds
B2	binds
B3	binds
B4	binds
